IntAct's records for PubMed 35512704

B1: Speckle-type POZ protein (Homo sapiens), O43791 (parent)
chain: MSRVPSPPPPAEMSSGPVAESWCYTQIKVVKFSYMWTINNFSFCREEMGEVIKSSTFSSGANDKLKWCLRVNPKGLDEESKDYLSLYLLLVSCPKSEVRAKFKFSILNAKGEETKAMESQRAYRFVQGKDWGFKKFIRRDFLLDEANGLLPDDKLTLFCEVSVVQDSVNISGQNTMNMVKVPECRLADELGGLWENSRFTDCCLCVAGQEFQAHKAILAARSPVFSAMFEHEMEESKKNRVEINDVEPEVFKEMMCFIYTGKAPNLDKMADDLLAAADKYALERLKVMCEDALCSNLSVENAAEILILADLHSADQLKTQAVDFINYHASDVLETSGWKSMVVSHPHLVAEAYRSLASAQCPFLGPPRKRLKQS
partner: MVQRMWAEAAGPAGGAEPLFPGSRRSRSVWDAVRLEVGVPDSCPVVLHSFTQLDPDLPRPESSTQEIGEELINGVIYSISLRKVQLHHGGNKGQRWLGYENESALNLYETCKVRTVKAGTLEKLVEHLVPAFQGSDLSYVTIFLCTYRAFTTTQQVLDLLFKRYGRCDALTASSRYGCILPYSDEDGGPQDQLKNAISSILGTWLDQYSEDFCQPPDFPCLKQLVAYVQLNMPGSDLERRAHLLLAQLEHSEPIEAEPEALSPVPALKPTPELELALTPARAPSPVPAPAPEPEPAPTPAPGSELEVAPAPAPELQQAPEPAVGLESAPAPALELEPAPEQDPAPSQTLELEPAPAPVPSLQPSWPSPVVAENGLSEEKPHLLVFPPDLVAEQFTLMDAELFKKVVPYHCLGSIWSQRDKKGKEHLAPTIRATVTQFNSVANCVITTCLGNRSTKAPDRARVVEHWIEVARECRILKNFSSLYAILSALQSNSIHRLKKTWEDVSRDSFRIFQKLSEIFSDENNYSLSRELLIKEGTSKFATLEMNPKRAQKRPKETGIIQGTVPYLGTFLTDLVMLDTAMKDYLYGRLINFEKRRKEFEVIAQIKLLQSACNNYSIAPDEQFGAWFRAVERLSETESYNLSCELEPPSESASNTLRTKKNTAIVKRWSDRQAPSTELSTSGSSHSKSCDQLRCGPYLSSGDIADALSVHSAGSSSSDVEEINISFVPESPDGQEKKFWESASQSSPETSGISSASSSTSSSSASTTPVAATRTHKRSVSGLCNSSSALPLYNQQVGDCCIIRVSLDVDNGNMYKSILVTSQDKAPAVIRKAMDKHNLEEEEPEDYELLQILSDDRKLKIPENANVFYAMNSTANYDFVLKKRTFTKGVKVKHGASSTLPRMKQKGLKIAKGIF
B2: Speckle-type POZ protein (Homo sapiens), O43791 (parent)
chain: B1 chain
partner: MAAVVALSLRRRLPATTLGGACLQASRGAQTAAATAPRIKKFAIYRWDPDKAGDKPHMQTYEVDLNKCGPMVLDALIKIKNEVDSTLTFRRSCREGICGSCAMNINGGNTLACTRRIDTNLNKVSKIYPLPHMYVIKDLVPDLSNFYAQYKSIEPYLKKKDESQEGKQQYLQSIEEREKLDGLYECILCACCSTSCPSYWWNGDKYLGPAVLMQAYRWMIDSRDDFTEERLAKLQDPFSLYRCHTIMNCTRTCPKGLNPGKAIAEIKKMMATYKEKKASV
B3: Speckle-type POZ protein (Homo sapiens), O43791 (parent)
chain: B1 chain
partner: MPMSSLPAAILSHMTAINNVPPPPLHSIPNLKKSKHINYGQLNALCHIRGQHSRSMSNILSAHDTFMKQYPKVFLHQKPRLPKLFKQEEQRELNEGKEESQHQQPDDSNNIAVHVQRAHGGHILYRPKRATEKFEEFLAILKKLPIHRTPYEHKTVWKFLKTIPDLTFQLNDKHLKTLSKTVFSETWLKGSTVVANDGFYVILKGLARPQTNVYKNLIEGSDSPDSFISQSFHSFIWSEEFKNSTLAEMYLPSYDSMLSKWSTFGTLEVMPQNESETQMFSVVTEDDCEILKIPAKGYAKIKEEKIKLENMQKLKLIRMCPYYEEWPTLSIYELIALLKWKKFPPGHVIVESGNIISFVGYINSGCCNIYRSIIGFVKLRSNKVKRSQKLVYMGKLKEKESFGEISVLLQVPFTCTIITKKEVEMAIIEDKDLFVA
B4: Speckle-type POZ protein (Homo sapiens), O43791 (parent)
chain: B1 chain
partner: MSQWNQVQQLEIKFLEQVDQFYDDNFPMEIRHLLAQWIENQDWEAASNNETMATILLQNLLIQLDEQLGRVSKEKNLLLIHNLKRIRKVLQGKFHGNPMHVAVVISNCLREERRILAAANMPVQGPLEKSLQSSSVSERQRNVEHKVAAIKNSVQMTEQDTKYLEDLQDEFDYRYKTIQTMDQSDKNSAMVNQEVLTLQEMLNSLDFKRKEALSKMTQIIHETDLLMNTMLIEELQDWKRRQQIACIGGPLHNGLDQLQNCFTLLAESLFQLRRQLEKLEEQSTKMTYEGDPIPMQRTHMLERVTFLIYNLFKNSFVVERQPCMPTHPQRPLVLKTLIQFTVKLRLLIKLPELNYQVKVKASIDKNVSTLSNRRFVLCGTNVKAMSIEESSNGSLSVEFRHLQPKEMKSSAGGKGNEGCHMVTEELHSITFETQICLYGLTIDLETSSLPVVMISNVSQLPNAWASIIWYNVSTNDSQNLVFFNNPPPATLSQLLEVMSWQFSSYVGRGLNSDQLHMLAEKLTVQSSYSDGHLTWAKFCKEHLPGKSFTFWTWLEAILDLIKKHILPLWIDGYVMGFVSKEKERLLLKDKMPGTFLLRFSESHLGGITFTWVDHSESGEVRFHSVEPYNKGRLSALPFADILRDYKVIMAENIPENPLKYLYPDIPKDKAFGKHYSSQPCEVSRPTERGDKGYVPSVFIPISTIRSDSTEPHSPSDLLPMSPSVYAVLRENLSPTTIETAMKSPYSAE
B5: Speckle-type POZ protein (Homo sapiens), O43791 (parent)
chain: B1 chain
partner: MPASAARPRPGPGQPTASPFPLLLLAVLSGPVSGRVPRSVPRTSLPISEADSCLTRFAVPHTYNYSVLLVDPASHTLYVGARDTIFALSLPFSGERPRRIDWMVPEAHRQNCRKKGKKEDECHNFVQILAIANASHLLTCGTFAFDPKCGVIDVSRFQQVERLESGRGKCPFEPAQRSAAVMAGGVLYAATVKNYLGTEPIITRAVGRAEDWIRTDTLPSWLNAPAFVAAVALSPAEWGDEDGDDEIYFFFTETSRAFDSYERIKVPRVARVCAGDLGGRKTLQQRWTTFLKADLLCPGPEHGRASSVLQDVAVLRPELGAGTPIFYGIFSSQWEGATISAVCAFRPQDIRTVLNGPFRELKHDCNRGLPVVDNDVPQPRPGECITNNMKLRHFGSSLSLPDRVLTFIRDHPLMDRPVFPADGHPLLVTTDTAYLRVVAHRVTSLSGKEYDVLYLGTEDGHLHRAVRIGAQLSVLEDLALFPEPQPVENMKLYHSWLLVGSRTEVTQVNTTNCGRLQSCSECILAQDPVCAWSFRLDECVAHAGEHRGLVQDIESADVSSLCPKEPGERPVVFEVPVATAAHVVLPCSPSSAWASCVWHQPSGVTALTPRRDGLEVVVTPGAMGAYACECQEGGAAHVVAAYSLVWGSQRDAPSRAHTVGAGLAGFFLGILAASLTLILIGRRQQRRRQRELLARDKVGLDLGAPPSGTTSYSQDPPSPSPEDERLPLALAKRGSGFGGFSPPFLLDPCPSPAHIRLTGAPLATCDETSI
B6: Speckle-type POZ protein (Homo sapiens), O43791 (parent)
chain: B1 chain
partner: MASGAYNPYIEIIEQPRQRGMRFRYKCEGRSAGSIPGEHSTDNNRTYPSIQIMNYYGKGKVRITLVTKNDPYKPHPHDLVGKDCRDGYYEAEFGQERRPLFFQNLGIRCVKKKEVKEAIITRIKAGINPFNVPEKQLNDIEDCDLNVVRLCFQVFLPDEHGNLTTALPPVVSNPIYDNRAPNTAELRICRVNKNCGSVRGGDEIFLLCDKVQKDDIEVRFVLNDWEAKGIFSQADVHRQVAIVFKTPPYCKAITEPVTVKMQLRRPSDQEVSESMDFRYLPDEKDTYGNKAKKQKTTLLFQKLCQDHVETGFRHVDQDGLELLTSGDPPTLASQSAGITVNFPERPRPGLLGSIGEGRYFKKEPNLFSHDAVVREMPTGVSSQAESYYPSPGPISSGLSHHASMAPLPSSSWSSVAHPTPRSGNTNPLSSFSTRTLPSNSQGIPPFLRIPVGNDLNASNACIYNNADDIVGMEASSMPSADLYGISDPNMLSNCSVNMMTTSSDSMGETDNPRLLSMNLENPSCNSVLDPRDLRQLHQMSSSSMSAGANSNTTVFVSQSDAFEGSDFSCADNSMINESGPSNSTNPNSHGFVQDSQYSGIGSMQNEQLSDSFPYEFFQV

Variants of: B1
Settings: with gnds_human RALGDS

Variant	effect of a mutation on the interaction
F102C	with no effect

Variants of: B1
Settings: with gnds_human RALGDS
Remark: another data set of the same source

Variant	effect of a mutation on the interaction
Y87C	with no effect

Variants of: B2
Settings: with sdhb_human SDHB

Variant	effect of a mutation on the interaction
F133L	with no effect

Variants of: B2
Settings: with sdhb_human SDHB
Remark: another data set of the same source

Variant	effect of a mutation on the interaction
F133V	with no effect

Variants of: B2
Settings: with sdhb_human SDHB
Remark: another data set of the same source

Variant	effect of a mutation on the interaction
Y87C	with no effect

Variants of: B2
Settings: with sdhb_human SDHB
Remark: another data set of the same source

Variant	effect of a mutation on the interaction
F102C	with no effect

Variants of: B3
Settings: with cnbd1_human CNBD1, Q8NA66

Variant	effect of a mutation on the interaction
Y87C	with no effect

Variants of: B3
Settings: with cnbd1_human CNBD1, Q8NA66
Remark: another data set of the same source

Variant	effect of a mutation on the interaction
F133V	with no effect

Variants of: B3
Settings: with cnbd1_human CNBD1, Q8NA66
Remark: another data set of the same source

Variant	effect of a mutation on the interaction
F133L	with no effect

Variants of: B4
Settings: with stat4_human STAT4, Q14765

Variant	effect of a mutation on the interaction
F102C	with no effect

Variants of: B4
Settings: with stat4_human STAT4, Q14765
Remark: another data set of the same source

Variant	effect of a mutation on the interaction
Y87C	with no effect

Variants of: B4
Settings: with stat4_human STAT4, Q14765
Remark: another data set of the same source

Variant	effect of a mutation on the interaction
F133L	with no effect

Variants of: B4
Settings: with stat4_human STAT4, Q14765
Remark: another data set of the same source

Variant	effect of a mutation on the interaction
F133V	with no effect

Variants of: B5
Settings: with sem4f_human SEMA4F

Variant	effect of a mutation on the interaction
Y87C	with no effect

Variants of: B5
Settings: with sem4f_human SEMA4F
Remark: another data set of the same source

Variant	effect of a mutation on the interaction
F133V	with no effect

Variants of: B5
Settings: with sem4f_human SEMA4F
Remark: another data set of the same source

Variant	effect of a mutation on the interaction
F133L	with no effect

Variants of: B5
Settings: with sem4f_human SEMA4F
Remark: another data set of the same source

Variant	effect of a mutation on the interaction
F102C	with no effect

Variants of: B6
Settings: with rel_human REL

Variant	effect of a mutation on the interaction
F133V	with no effect

Variants of: B6
Settings: with rel_human REL
Remark: another data set of the same source

Variant	effect of a mutation on the interaction
F133L	causing an interaction

Variants of: B6
Settings: with rel_human REL
Remark: another data set of the same source

Variant	effect of a mutation on the interaction
F133L	increasing interaction strength

Variants of: B6
Settings: with rel_human REL
Remark: another data set of the same source

Variant	effect of a mutation on the interaction
Y87C	with no effect

Variants of: B6
Settings: with rel_human REL
Remark: another data set of the same source

Variant	effect of a mutation on the interaction
F102C	with no effect
